{
  "source": "patent US20110077383A1",
  "about": "(AstraZeneca / MedImmune, published 2011)",
  "binders": {"B1": {"name": "mAb 12G3H11, human anti-human EphA2 monoclonal antibody, wild type hinge (antibody, human IgG1, V domains shown)", "VH": "QMQLVQSGPEVKKPGTSVKVSCKASGFTFDDYSMNWVRQARGQRLEWIGFIRNKANDYTTEYADSVKGRVTITRDMSTSTAYMELSSLRSEDTAVYYCARYPRHHAMDSWGQGTSVTVSS", "VL": "DIQMTQSPSSLSASVGDRVTITCRASQSISNNLHWYQQKPGKAPKLLIKYAFQSISGVPSRFSGSGSGTDFTFTISSLQPEDFATYYCQQANSWPLTFGGGTKVEIK", "notes": "Human IgG1/kappa expressed in HEK 293 cells; also called Wild type (12G3H11); 12G3H11 “wild type”; not shown: human kappa light chain constant region"}, "B2": {"name": "12G3H11 Fc variant 13-2 AA Delete Mid (antibody, IgG1)", "heavy (part 1 of 2)": "B1 VH", "heavy (part 2 of 2)": "not shown", "light": "B1 VL", "notes": "domain: lower hinge, CH2, CH3; 12G3H11 IgG1/kappa; T223 and H224 deleted; not shown: human IgG1 heavy chain constant region, CH1 up to EU 215; human IgG1 heavy chain constant region from EU 231 (lower hinge, CH2, CH3); human kappa light chain constant region"}, "B3": {"name": "12G3H11 Fc variant 5-GGG Insert Low (antibody, IgG1)", "heavy (part 1 of 2)": "B1 VH", "heavy (part 2 of 2)": "not shown", "light": "B1 VL", "notes": "domain: lower hinge, CH2, CH3; 12G3H11 IgG1/kappa; GGG inserted between P227 and P228; not shown: human IgG1 heavy chain constant region, CH1 up to EU 215; human IgG1 heavy chain constant region from EU 231 (lower hinge, CH2, CH3); human kappa light chain constant region"}, "B4": {"name": "12G3H11 Fc variant 14-T to C Middle (antibody, IgG1)", "heavy (part 1 of 2)": "B1 VH", "heavy (part 2 of 2)": "not shown", "light": "B1 VL", "notes": "domain: lower hinge, CH2, CH3; 12G3H11 IgG1/kappa; T223C; not shown: human IgG1 heavy chain constant region, CH1 up to EU 215; human IgG1 heavy chain constant region from EU 231 (lower hinge, CH2, CH3); human kappa light chain constant region"}, "B5": {"name": "12G3H11 Fc variant 11-4 AA Delete (antibody, IgG1)", "heavy (part 1 of 2)": "B1 VH", "heavy (part 2 of 2)": "not shown", "light": "B1 VL", "notes": "domain: lower hinge, CH2, CH3; 12G3H11 IgG1/kappa; T223, H224, P227 and P228 deleted; not shown: human IgG1 heavy chain constant region, CH1 up to EU 215; human IgG1 heavy chain constant region from EU 231 (lower hinge, CH2, CH3); human kappa light chain constant region"}, "B6": {"name": "12G3H11 Fc variant 18-EPKS to PPPP (antibody, IgG1)", "heavy (part 1 of 2)": "B1 VH", "heavy (part 2 of 2)": "not shown", "light": "B1 VL", "notes": "domain: lower hinge, CH2, CH3; 12G3H11 IgG1/kappa; EPKS replaced by PPPP; not shown: human IgG1 heavy chain constant region, CH1 up to EU 215; human IgG1 heavy chain constant region from EU 231 (lower hinge, CH2, CH3); human kappa light chain constant region"}, "B7": {"name": "12G3H11 Fc variant 6-GGG Insert High (antibody, IgG1)", "heavy (part 1 of 2)": "B1 VH", "heavy (part 2 of 2)": "not shown", "light": "B1 VL", "notes": "domain: lower hinge, CH2, CH3; 12G3H11 IgG1/kappa; GGG inserted between D(Kabat 234) and K222; not shown: human IgG1 heavy chain constant region, CH1 up to EU 215; human IgG1 heavy chain constant region from EU 231 (lower hinge, CH2, CH3); human kappa light chain constant region"}},
  "data": [
    {"target": "T1, human EphA2-Fc (human, UniProt P29317 25-534, limits assumed)", "T1 construct": "Coated on Azlactone beads and titrated in solution in KinExA; not shown: Fc part", "T1 sequence (P29317 25-534 limits assumed)": "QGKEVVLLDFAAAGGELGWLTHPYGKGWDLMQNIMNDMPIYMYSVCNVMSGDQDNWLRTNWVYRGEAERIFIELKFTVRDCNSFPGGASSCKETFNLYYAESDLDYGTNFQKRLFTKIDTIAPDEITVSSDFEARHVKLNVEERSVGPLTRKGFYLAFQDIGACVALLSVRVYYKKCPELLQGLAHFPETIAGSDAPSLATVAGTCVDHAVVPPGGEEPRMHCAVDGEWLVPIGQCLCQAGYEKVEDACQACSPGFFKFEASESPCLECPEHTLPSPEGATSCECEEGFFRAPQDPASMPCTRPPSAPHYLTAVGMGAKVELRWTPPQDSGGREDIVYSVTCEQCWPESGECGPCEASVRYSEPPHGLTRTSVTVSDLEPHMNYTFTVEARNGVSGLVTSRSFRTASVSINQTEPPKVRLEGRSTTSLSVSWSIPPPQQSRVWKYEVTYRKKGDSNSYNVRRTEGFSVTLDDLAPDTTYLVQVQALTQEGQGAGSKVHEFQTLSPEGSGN", "test": "KinExA, EphA2-Fc beads, solution equilibrium titration", "method": "Protein concentrations were calculated by the BCA method. […] Coated beads were then separated from unreacted EphA2-Fc using a gentle pulse spin and blocked for approximately 2 h at room temperature with 1 M Tris, pH 8.0, bovine serum albumin 10 mg/mL. Beads were then resuspended in 30 mL of run buffer (PBS, pH 7.4-0.02% NaN₃) and packed into a column. […] The amount of free IgG in the samples was derived from the fluorescence signal obtained after the passing of Cy5-labeled goat anti-human IgG F(ab′)₂ (typically 0.5-2 μg/ml; Jackson ImmunoResearch Laboratories, West Grove, Pa.) through the column.", "units": {"Kd": "pM"}, "values": [
      {"binder": "B1", "Kd": 1.1},
      {"binder": "B2", "Kd": 1.7},
      {"binder": "B3", "Kd": 0.8},
      {"binder": "B4", "Kd": 7.2},
      {"binder": "B5", "Kd": "≤ 1"},
      {"binder": "B6", "Kd": 1.5},
      {"binder": "B7", "Kd": 2.7}
    ]}
  ]
}
